Patent CN109384844A (INST OF BASIC MEDICAL SCIENCES THE ACADEMY OF MILITARY …, dated 2019)

What was measured:
[1] = target: T1, Hla蛋白 (Staphylococcus aureus)
[2] = target: T1, Hla蛋白; remark: listed apart in the source

T1 sequence (Q2G1X0 27-319 limits assumed): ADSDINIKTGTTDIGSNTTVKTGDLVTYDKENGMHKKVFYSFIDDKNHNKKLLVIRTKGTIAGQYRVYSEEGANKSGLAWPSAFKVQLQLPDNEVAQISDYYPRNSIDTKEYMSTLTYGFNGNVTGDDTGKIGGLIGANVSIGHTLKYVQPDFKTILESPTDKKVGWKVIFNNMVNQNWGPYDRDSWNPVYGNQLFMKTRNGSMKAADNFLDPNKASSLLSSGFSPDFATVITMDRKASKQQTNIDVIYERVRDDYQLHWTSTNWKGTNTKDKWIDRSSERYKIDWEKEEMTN

B1: AAH-1抗体 (antibody, V domains shown)
VH: QMQLVQSGAEIRRPGSLVKVSCQASGGSFKNFALNWVRQAPGLGLQWMGSITPFLNVPTYAQQFQGRVTMSTDTSTSTAYMVLRRLTSDDTAVYYCARGNSLLDYWGQGTLVTVSS
VL: EIVLTQSPATLSVSPGDGATLSCRASQSVSGNLAWYQKKPGQAPRLLIYDTSIRAAGVPPRFSGSGSGTEFTLTISSLQSEDFAVYYCQQYHNLPPLTFGPGTKLEIK
EC50 [1]: 0.075 µg/mL
Kd [2]: 1.92 nM
koff [2]: 0.000255 s⁻¹
kon [2]: 133000 M⁻¹ s⁻¹
